Measurements published in PMC3539201.

Molecular target: MBP-torsinAΔE (human) (UniProt O14656)
Experiment: pull-down

B1: nesprin-3α (endogenous, mouse fibroblasts) (natural protein)
chain: MTQQPQEDFERSVEDAQAWMKVIQEQLQVNDNTKGPRAALEARLRETEKICQLESEGMVKVELVLRAAEALLATCQEGQKPEILARLRDIKSQWEETVTYMTHCHSRIEWVWLHWSEYLLAQDEFYRWFQKMVVALEPPVELQLGLKEKQWQLSHAQVLLHNVDNQAVLLDRLLEEAGSLFSRIGDPSVDEDAQKRMKAEYDAVKARAQRRVDLLAQVAQDHEQYREDVNEFQLWLKAVVEKVHSCLGRNCKLATELRLSTLQDIAKDFPRGEESLKRLEEQAVGVIQNTSPLGAEKISGELEEMRGVLEKLRVLWKEEEGRLRGLLQSRGDCEQQIQQLEAELGDFKKSLQRLAQEGLEPTVKTATEDELVAQWRLFSGTRAALASEEPRVDRLQTQLKKLVTFPDLQSLSDSVVATIQEYQSMKGKNTRLHNATRAELWQRFQRPLNDLQLWKALAQRLLDITASLPDLASIHTFLPQIEAALTESSRLKEQLAMLQLKTDLLGSIFGQERAATLLEQVTSSVRDRDLLHNSLLQRKSKLQSLLVQHKDFGVAFDPLNRKLLDLQARIQAEKGLPRDLPGKQVQLLRLQGLQEEGLDLGTQIEAVRPLAHGNSKHQQKVDQISCDQQALQRSLEDLVDRCQQNVREHCTFSHRLSELQLWITMATQTLESHQGDVRLWDAESQEAGLETLLSEIPEKEVQVSLLQALGQLVMKKSSPEGATMVQEELRKLMESWQALRLLEENMLSLMRNQQLQRTEVDTGKKQVFTNNIPKAGFLINPQDPIPRRQHGANPLEGHDLPEDHPQLLRDFEQWLQAENSKLRRIITMRVATAKDLRTREVKLQELEARIPEGQHLFENLLRLRPARDPSNELEDLRYRWMLYKSKLKDSGHLLTESSPGELTAFQKSRRQKRWSPCSLLQKACRVALPLQLLLLLFLLLLFLLPAGEEERSCALANNFARSFALMLRYNGPPPT
Binder B1 has a fold nesprin-3α pulled down relative to MBP-torsinA of 3 fold.
